Reference: paper PMC9165289, “Theranostic PSMA ligands with optimized backbones for intraoperative multimodal imaging and photodynamic therapy of prostate cancer” (European Journal of Nuclear Medicine and Molecular Imaging, 2022)
Like-named read-outs stand apart in the source and are kept apart here.

Experiments:
LS174T-PSMA cells [1] = experiment: in vitro targeted PDT assay (CellTiter-Glo); format: cell-based, human; details: 30 nM ligand, irradiated with 100 J/cm^2
Description: LS174T wildtype (LS174T-WT) and LS174T-PSMA cells were cultured to confluency in 48-well plates. Cells were incubated (2 h, 5% CO2, 37 °C) with 30-nM PSMA ligand in binding buffer (RPMI 1640 + 0.5% BSA) in triplicate. After washing with PBS, a 0.5-ml binding buffer was added to each well, and cells were irradiated with a NIR light-emitting diode (690 ± 20 nm). The typical forward voltage was 2.6 V creating a power output of 490 mW using 126 individual LED bulbs to ensure homogenous illumination of the area of interest predefined as 5 × 3 cm. The cells were irradiated at NIR radiant exposures of 100 J/cm^2 ([…]) and subsequently incubated for 1 h at 37 °C. Cells that only received the PSMA ligand, only the NIR light, or neither the ligand nor the light were included as controls. Cytotoxic effects of PDT with PSMA ligands were determined with a CellTiter-Glo™ assay (Promega Benelux) according to the manufacturer’s instructions. The binding buffer was replaced with 100-µl fresh binding buffer and 100-µl CellTiter-Glo® 2.0 Assay. Plates were shaken (2 min) and incubated for 10 min at room temperature. Next, luminescence was measured in a plate reader (Tecan Infinite® 200 PRO) to determine the metabolic activity of the cells.

[2] = system: LS174T-PSMA and LS174T wildtype xenografts; experiment: ex vivo biodistribution of 111In-labeled ligands; set-up: species or system BALB/c nude mice; details: 0.3 nmol, 2 h p.i.
Description: (§1) All animal experiments were approved by the institutional Animal Welfare Committee of the Radboud University Medical Center and were conducted in accordance to the guidelines of the Revised Dutch Act on Animal Experimentation. Animal experiments were performed in 8–10 weeks old male BALB/c nude mice (Janvier). The mice were housed in individually ventilated cages (Blue line IVC, 3–5 mice per cage), under standard non-sterile conditions with cage enrichment present. There was free access to chlorophyll-free animal chow (Sniff Voer) and water. Mice were subcutaneously inoculated with 3.0 × 10^6 LS174T-PSMA cells in the right flank and 1.5 × 10^6 LS174T WT cells in the left flank (diluted in 200-µl RPMI 1640 medium). When xenografts were approximately 0.5 cm^3 (10–14 days after injection), mice were block-randomized into groups based on tumor size. The researchers were not blinded for the experimental groups.
(§2) Mice were intravenously injected with 0.3 nmol PSMA ligand, labeled with 10 MBq ^111In (molar activity 33.3 MBq/nmol) in PBS + 0.5% (w/v) BSA. For the ex vivo biodistribution, five groups (one group for each ligand) of four mice were included. Two hours p.i., all mice were euthanized by CO2/O2-asphyxiation. For two mice of each group (2 mice/ligand), background-subtracted fluorescence images were acquired with the IVIS imaging system (Xenogen VivoVision IVIS Lumina II, PerkinElmer), with a 640-nm excitation filter and a Cy5.5 emission filter and an acquisition time of 10 s. Next, µSPECT/CT imaging was performed in the same two mice per group, with a 1.0-mm diameter pinhole mouse collimator tube (U-SPECT II, MILabs). Mice were scanned for 30 min followed by a CT scan for anatomical reference (spatial resolution 160 μm, 615 μA, 65 kV). MILabs reconstruction software was used to reconstruct the µSPECT/CT scans, via an ordered-subset expectation maximization algorithm, energy windows 154–188 keV and 220–270 keV, 3 iterations, 16 subsets, and voxel size of 0.75 mm. SPECT/CT maximum intensity projections (MIPs) were created using the Inveon Research Workplace software (Siemens Preclinical Solutions, version 4.1). NIR fluorescence images were analyzed using Living Image software (PerkinElmer, version 4.2). After imaging, relevant tissues were dissected, weighed, and measured for radioactivity in a gamma-counter (2480 WIZARD^2 Automatic Gamma Counter, PerkinElmer). In addition, a blocking experiment with PSMA-N064 and PSMA-617 was performed. Full experimental procedures and results can be found in the supplementary data (Page 5, Supplementary Fig. 3).

[3] = ex vivo biodistribution of 111In-labeled ligands; set-up: species or system BALB/c nude mice; details: male, BALB/c nude, mouse, iv, 0.3 nmol, total radioactivity, 2 h p.i.; for tissue uptake at 2 h: 10 MBq/mouse, i.v.
Description: as §1, §2

LS174T-PSMA cells [4] = experiment: in vitro binding and internalization assay; format: cell-based, human; details: 37 °C, 2 h
Description: The binding and internalization characteristics of the ligands were determined using LS174T-PSMA cells. Cells were cultured to confluency in 6-well plates followed by incubation with 50,000 counts per minute of ^111In-labeled ligand (0.1–0.25 pmol/well) in 1-ml RPMI + 0.5% BSA (37 °C, 2 h). Non-specific binding was determined by coincubation with 2(phosphonomethyl)-pentane-1,5-dioic acid (2-PMPA, 21.57 µM). PSMA-specific binding was defined as total binding minus the non-specific binding. To retrieve the membrane-bound fraction, cells were washed twice with PBS and incubated for 10 min at 0 °C with acid buffer (154-mM NaCl, 0.1 M acetic acid, pH 2.6). After incubation, the membrane-bound fraction was collected. Then, cells were washed and lysed with 0.1 M NaOH, and the cell lysate (intracellular activity) was collected. Intracellular and membrane-bound activity fractions were measured in a gamma-counter (2480 WIZARD^2 Automatic Gamma Counter, PerkinElmer).

For C[Si](C)(CCC[N+](CCCS(=O)(=O)[O-])(CCCS(=O)(=O)O)CCCS(=O)(=O)O)O[Si]1(O[Si](C)(C)CCC[N+](CCCS(=O)(=O)[O-])(CCCS(=O)(=O)O)CCCS(=O)(=O)O)n2c3c4ccccc4c2N=C2N=C(N=c4c5c(OCCCOC(=O)NCCCCCC(=O)NCCCC[C@H](NC(=O)CN6CCN(CC(=O)O)CCN(CC(=O)O)CCN(CC(=O)O)CC6)C(=O)NCCCC[C@H](NC(=O)[C@H](CCC(=O)O)NC(=O)c6ccccc6)C(=O)NCc6ccc(C(=O)N[C@@H](Cc7ccc8ccccc8c7)C(=O)NCCCC[C@H](NC(=O)N[C@@H](CCC(=O)O)C(=O)O)C(=O)O)cc6)cccc5c(n41)=NC1=NC(=N3)c3ccccc31)c1ccccc12 [PSMA-N01], the cell viability (LS174T-PSMA cells [1]) was 23% ± 5%, the “Biodistribution Kidney” value ([2]; 10 MBq/mouse, i.v., n=4) was 99.2 ± 11.5 %ID/g and the Tumor/Negative tumor ratio [2] was 19.7 ± 6.5. For the same compound, the Tumor/Prostate ratio [2] was 35.6 ± 4.6, the Tumor/Salivary gland ratio [2] was 27.8 ± 4.8 and the tissue uptake at 2 h ([3]; LS174T wildtype tumor, n=4, read-out: Biodistribution Tumor- LS174T) was 1.1 ± 0.2 %ID/g. The tissue uptake at 2 h ([3]; LS174T-PSMA tumor, n=4, read-out: Biodistribution Tumor+ LS174T-PSMA) was 21 ± 3 %ID/g, the tissue uptake at 2 h ([3]; adrenals, n=4, read-out: Biodistribution Adrenals) was 1.8 ± 0.1 %ID/g and the tissue uptake at 2 h ([3]; blood, n=4, read-out: Biodistribution Blood) was 1.1 ± 0.1 %ID/g. For the same compound, the tissue uptake at 2 h ([3]; bone marrow, n=4, read-out: Biodistribution Bone marrow) was 0.3 ± 0.2 %ID/g, the tissue uptake at 2 h ([3]; bone, n=4, read-out: Biodistribution Bone) was 0.7 ± 0.1 %ID/g and the tissue uptake at 2 h ([3]; duodenum, n=4, read-out: Biodistribution Duodenum) was 0.7 ± 0.1 %ID/g. The tissue uptake at 2 h ([3]; heart, n=4, read-out: Biodistribution Heart) was 0.6 ± 0.1 %ID/g, the tissue uptake at 2 h ([3]; kidney, n=4, read-out: Biodistribution Kidney) was 90 ± 7 %ID/g and the tissue uptake at 2 h ([3]; liver, n=4, read-out: Biodistribution Liver) was 1.5 ± 0.2 %ID/g. It also gave a tissue uptake at 2 h ([3]; lung, n=4, read-out: Biodistribution Lung) of 2.7 ± 0.9 %ID/g, a tissue uptake at 2 h ([3]; muscle, n=4, read-out: Biodistribution Muscle) of 0.2 ± 0.03 %ID/g and a tissue uptake at 2 h ([3]; pancreas, n=4, read-out: Biodistribution Pancreas) of 0.4 ± 0.1 %ID/g. The tissue uptake at 2 h ([3]; prostate, n=4, read-out: Biodistribution Prostate) was 0.6 ± 0.1 %ID/g, the tissue uptake at 2 h ([3]; salivary glands, n=4, read-out: Biodistribution Salivary glands) was 0.8 ± 0.1 %ID/g and the tissue uptake at 2 h ([3]; spleen, n=4, read-out: Biodistribution Spleen) was 2.2 ± 0.4 %ID/g. For the same compound, the tissue uptake at 2 h ([3]; stomach, n=4, read-out: Biodistribution Stomach) was 0.7 ± 0.1 %ID/g, the tissue to tissue ratio at 2 h ([3]; tumor (LS174T-PSMA xenograft) / blood, read-out: Tumor/Blood ratio) was 20 ± 2.5 and the tissue to tissue ratio at 2 h ([3]; tumor (LS174T-PSMA xenograft) / kidney, read-out: Tumor/Kidney ratio) was 0.2 ± 0.04. For the same compound, the tissue to tissue ratio at 2 h ([3]; tumor (LS174T-PSMA xenograft) / liver, read-out: Tumor/Liver ratio) was 14.6 ± 2.4, the tissue to tissue ratio at 2 h ([3]; tumor (LS174T-PSMA xenograft) / spleen, read-out: Tumor/Spleen ratio) was 9.9 ± 1.4 and the “internalization percentage (percentage of cell-associated ligand that was internalized)” value (LS174T-PSMA cells [4]) was 73–90%.
